Laboratory results as given in article PMC5295395, “Inhibition of PlexA1-mediated brain tumor growth and tumor-associated angiogenesis using a transmembrane domain targeting peptide” (Oncotarget, 2016).

Columns and labels:
PlexA1 = assay: morpholino-based PlexA1 knockdown in zebrafish, intersegmental vessels; type: in vivo; conditions: tg(kdrl:eGFP) zebrafish, 28 hours post fertilization, vs no injection or mismatch morpholino
From the text: We observed PlexA1 positive blood vessels in the tissue array of GBM samples (Figure 5A). […] To address this possibility we first used a transgenic zebra-fish model tg(kdrl:eGFP) highlighting the endothelial cells. This allowed us to assess the angiogenic activities in vivo by analyzing formation of intersegmental vessels (ISVs) after morpholino-based knockdown of the target. […] (Scale bar: 40 μm). […] Representative images of control, Plexin-A1 mismatch and […]1 knockdown embryos (plxna1MO) are shown 28 hours post fertilization (28hpf). […] (E) Live-monitoring of VEGF-induced HUVEC cell migration assay using the […] system (transwell assay). (F) Microphotographs illustrating the expression of PlexA1 in blood vessels of the chick chorioallontoic membrane (upper left picture). Microphotographs (middle and lower left pictures) and camera lucida drawing (middle and lower right pictures) showing representative fields of observation after 24 h incubation with VEGF (100 ng/ml, +vehicle) or […]1 (10^-7 M). The number of VEGF-induced new blood vessels is shown in the graph. For knockdown of PlexA1 in the zebra fish we used morpholino oligonucleotides described by. MO ([NT]) was injected at the one-cell stage. Animals ([…] incubated at 28.5°C for 5 hours before treatment with 1-phenyl-2-thiourea (PTU) to prevent pigment formation. […]

[1] = target: Plexin-A1 (human (endogenous in U373MG and U118MG)) (UniProt Q9UIW2); assay: proximity ligation; proximity ligation assay on tumor tissue sections of U118MG-Luc xenografts; mice treated with MTP-PlexA1 against control mice
[2] = target: Plexin-A1 (human (endogenous in U373MG and U118MG)) (UniProt Q9UIW2); assay: proximity ligation; in situ proximity ligation assay (Duo-link) on U373MG cells; MTP-PlexA1 (10^-7 M) added, NRP1/PlexA1 complexes counted against vehicle
[3] = target: Plexin-A1 (human (endogenous in U373MG and U118MG)) (UniProt Q9UIW2); assay: co-IP; immunoprecipitation of PlexA1 from U373MG cells stimulated with Sema3A (100 ng/ml) or VEGF (100 ng/ml) with MTP-PlexA1 (10^-7 M); amount of co-precipitated NRP1 and PlexA4 against no peptide
NRP1/PlexA1 complexes = assay: in situ proximity ligation assay (Duo-link), NRP1/PlexA1 complexes in U373MG cells; type: cell-based, human; conditions: specificity control, MTP-Neu at 10–6 M
Experimental: “Zip sequence” is the positive control of dimerization and “Empty” is the negative control of this bacterial system. (C, D) SPR assay (Biacore) to quantify MTP-PlexA1 interactions with PLexA1, NRP1 and VEGFR2 TMDs. (E) Proximity ligation assay showing that MTP-PlexA1 (10^−7 M) decreases the number of PLexA1-NRP1 interactions (green dots) in U373MG cells (scale bar = 20 μm).
Additional specificity controls were performed using a mutated version of MTP-PlexA1 (in which 3 glycines of the GxxxGxxxG motif were replaced by 3 valines or MTP-Neu, an anti-breast cancer peptide known to not interact with PlexA1) as described in Supplementary Figure S2. […] Similar results were obtained when cells were exposed to VEGF (39.4% NRP1 and 35.4% PlexA4, Figure 4B).
Supplementary Figure S2: Specificity controls were performed using a mutated version of MTP-PlexA1 […]
LVIVAVLIAYKRK). Such mutations have been previously shown to be sufficient to lose activity of NRP1 antagonist membrane domain targeting peptide (Roth et al., 2008 Mol Biol Cell). We also used MTP-Neu, a transmembrane domain targeting peptide known to […]
M, a concentration previously shown to produce maximal antagonist activity of the peptide. Additionally, we also repeated the in vitro angiogenic assay on matrigel using HUVEC cells. […]
to MTP-PlexA1. These experiments confirmed the specificity of MTP-PlexA1.
(1 picture or pasted object on this page, not shown here)

NRP1 or PlexA1 = conditions: ref Arpel et al., 2014, Cell Reports; cited from earlier work
From the text: Such mutations have been previously shown to be sufficient to lose activity of NRP1 antagonist membrane domain targeting peptide (Roth et al., 2008 Mol Biol Cell).

UniProt Q9UIW2, sequence (Q9UIW2 27-1896): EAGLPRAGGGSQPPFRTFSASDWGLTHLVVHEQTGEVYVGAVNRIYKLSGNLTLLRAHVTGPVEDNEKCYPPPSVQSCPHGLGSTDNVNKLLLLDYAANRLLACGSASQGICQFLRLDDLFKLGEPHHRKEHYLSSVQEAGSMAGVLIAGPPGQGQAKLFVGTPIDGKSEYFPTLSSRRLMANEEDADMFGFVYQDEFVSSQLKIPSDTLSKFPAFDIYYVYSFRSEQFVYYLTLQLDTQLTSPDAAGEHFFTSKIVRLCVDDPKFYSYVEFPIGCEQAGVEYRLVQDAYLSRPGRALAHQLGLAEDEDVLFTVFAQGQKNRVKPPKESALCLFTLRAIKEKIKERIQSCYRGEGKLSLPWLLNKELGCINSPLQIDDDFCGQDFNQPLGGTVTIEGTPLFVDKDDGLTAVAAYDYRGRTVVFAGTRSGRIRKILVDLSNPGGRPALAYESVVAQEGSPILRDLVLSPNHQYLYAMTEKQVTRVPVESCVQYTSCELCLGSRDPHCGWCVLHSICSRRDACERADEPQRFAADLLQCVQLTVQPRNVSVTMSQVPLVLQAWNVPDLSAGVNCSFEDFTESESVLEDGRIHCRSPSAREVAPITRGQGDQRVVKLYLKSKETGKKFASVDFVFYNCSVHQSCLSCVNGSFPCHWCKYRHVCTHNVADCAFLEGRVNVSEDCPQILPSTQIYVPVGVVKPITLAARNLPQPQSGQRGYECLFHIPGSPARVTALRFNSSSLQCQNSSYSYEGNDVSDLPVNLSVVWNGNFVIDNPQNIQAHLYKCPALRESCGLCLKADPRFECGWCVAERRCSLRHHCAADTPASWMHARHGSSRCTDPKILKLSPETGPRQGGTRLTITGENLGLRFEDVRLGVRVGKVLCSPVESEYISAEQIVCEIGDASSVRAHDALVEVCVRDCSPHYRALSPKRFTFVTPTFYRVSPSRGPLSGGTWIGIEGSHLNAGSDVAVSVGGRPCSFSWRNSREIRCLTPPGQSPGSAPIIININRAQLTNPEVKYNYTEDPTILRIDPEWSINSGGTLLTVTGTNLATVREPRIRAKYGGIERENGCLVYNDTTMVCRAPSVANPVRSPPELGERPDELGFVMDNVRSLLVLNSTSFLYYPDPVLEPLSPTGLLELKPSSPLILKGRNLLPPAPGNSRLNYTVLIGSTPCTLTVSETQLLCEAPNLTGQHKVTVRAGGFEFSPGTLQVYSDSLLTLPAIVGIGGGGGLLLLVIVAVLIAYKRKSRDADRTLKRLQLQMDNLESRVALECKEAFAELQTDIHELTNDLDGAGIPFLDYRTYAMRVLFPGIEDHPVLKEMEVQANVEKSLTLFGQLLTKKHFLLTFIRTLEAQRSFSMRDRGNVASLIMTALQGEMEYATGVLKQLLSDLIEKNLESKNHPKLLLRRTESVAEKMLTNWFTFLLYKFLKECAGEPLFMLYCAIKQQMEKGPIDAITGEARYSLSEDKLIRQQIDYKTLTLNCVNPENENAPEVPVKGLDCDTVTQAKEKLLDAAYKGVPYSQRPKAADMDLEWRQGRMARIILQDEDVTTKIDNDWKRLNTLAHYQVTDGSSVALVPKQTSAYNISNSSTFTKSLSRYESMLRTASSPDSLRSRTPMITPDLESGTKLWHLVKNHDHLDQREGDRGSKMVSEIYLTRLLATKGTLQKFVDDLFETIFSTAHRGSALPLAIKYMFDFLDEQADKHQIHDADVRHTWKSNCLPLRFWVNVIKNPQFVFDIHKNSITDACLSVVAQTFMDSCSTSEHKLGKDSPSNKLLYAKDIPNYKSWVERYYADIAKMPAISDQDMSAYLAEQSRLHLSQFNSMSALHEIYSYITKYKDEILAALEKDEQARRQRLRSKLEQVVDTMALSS

Which “abnormal angiogenic sprouts in intersegmental vessels” value (PlexA1) does the source give for “5′-GCCACATATCTGCACTGGTCCTTGA-3′ (all phosphorodiamidate morpholino (PMO)) [morpholino sequence against PlexA1, morpholino oligonucleotide for knockdown of PlexA1 in the zebra fish]” here?
Its value is “significant number of abnormal angiogenic sprouts”.

For “MTP-PlexA1, synthetic transmembrane peptide mimicking the TMD of PlexA1”, which percent change of PlexA1-NRP1 interactions (proximity ligation, tumor sections) [1] is on record?
Its percent change of PlexA1-NRP1 interactions (proximity ligation, tumor sections) is -48.5%.

And the percent reduction of NRP1/PlexA1 complexes (proximity ligation, U373MG) [2]?
The percent reduction of NRP1/PlexA1 complexes (proximity ligation, U373MG) was 29.4%.

What about the percent reduction of NRP1 co-immunoprecipitated with PlexA1 (VEGF) [3] of the same substance?
The percent reduction of NRP1 co-immunoprecipitated with PlexA1 (VEGF) was 39.4%.

And the percent reduction of PlexA4 co-immunoprecipitated with PlexA1 (VEGF) [3]?
The percent reduction of PlexA4 co-immunoprecipitated with PlexA1 (VEGF) was 35.4%.

For “TFIIATVEGVLLFLILVVVVGILIKRR [MTP-Neu, reference compound]”, which “disruption of NRP1/PlexA1 dimers” value (NRP1/PlexA1 complexes) is on record?
The value was “unrelated MTP-Neu peptide”.

What about the “interaction with NRP1 or PlexA1” value (NRP1 or PlexA1) of the same substance?
The value was “not interact with NRP1 or PlexA1”.
